Numbering of substitutions follows the chain as printed. Names and notes keep the numbering of the source. Values joined by “and” are separate entries in the source; they are usually repeats but may differ in a detail not shown here. Equal values may be shown once.
Biological target: T1, substrate S-1 (SEISY-EVEFRWKK)
T1 chain: SEISYEVEFRWKK

B1: BACE construct Asp2-2L-TM-His6 expressed in CHO cells (protein)
chain: TQHGIRLPLRSGLGGAPLGLRLPRETDEEPEEPGRRGSFVEMVDNLRGKSGQGYYVEMTVGSPPQTLNILVDTGSSNFAVGAAPHPFLHRYYQRQLSSTYRDLRKGVYVPYTQGKWEGELGTDLVSIPHGPNVTVRANIAAITESDKFFINGSNWEGILGLAYAEIARPDDSLEPFFDSLVKQTHVPNLFSLQLCGAGFPLNQSEVLASVGGSMIIGGIDHSLYTGSLWYTPIRREWYYEVIIVRVEINGQDLKMDCKEYNYDKSIVDSGTTNLRLPKKVFEAAVKSIKAASSTEKFPDGFWLGEQLVCWQAGTTPWNIFPVISLYLMGEVTNQSFRITILPQQYLRPVEDVATSQDDCYKFAISQSSTGTVMGAVIMEGFYVVFDRARKRIGFAVSACHVHDEFRTAAVEGPFVTLDMEDCGYNIPQTDESHHHHHH
- Activity Assays (Fluorescence Peak Area) (fluorescence peak area): 83.3 and 85.2 and 78.1

B2: P33K-BACE expressed in E. coli from the pET11a-P33K-BACE construct (protein)
chain: MASMTGGQQMGRGSMAGVLPAHGTQHGIRLPLRSGLGGAPLGLRLPRETDEEPEEKGRRGSFVEMVDNLRGKSGQGYYVEMTVGSPPQTLNILVDTGSSNFAVGAAPHPFLHRYYQRQLSSTYRDLRKGVYVPYTQGKWEGELGTDLVSIPHGPNVTVRANIAAITESDKFFINGSNWEGILGLAYAEIARPDDSLEPFFDSLVKQTHVPNLFSLQLCGAGFPLNQSEVLASVGGSMIIGGIDHSLYTGSLWYTPIRREWYYEVIIVRVEINGQDLKMDCKEYNYDKSIVDSGTTNLRLPKKVFEAAVKSIKAASSTEKFPDGFWLGEQLVCWQAGTTPWNIFPVISLYLMGEVTNQSFRITILPQQYLRPVEDVATSQDDCYKFAISQSSTGTVMGAVIMEGFYVVFDRARKRIGFAVSACHVHDEFRTAAVEGPFVTLDMEDCGYNIPQTDES
- Activity Assays (Fluorescence Peak Area) (fluorescence peak area): 38.4 and 26.5 and 32.8
- enzyme activity compared with BACE: the P33K-BACE has essentially the same activity of BACE

B3: human BACE expressed in E. coli from pET11a-BACE, without the P33K mutation (protein)
chain: B2 chain with K56P
- Activity Assays (Fluorescence Peak Area) (fluorescence peak area): 31 and 45.8 and 31.9
